Two molecules from patent US20190284268A1 (ABCENTRA, published 2019) can be followed below.

The target of one test is Fas (human) (UniProt P25445). The test is described as follows: cell-based or functional assay.
For another test, the target named is oxidized LDL (oxLDL) (UniProt P04114 28-4563, oxidized LDL particle; kind of oxidation not stated for this assay). Kind of test: cell-based or functional assay.
Sequence of oxidized LDL (oxLDL) (P04114 28-4563 limits assumed): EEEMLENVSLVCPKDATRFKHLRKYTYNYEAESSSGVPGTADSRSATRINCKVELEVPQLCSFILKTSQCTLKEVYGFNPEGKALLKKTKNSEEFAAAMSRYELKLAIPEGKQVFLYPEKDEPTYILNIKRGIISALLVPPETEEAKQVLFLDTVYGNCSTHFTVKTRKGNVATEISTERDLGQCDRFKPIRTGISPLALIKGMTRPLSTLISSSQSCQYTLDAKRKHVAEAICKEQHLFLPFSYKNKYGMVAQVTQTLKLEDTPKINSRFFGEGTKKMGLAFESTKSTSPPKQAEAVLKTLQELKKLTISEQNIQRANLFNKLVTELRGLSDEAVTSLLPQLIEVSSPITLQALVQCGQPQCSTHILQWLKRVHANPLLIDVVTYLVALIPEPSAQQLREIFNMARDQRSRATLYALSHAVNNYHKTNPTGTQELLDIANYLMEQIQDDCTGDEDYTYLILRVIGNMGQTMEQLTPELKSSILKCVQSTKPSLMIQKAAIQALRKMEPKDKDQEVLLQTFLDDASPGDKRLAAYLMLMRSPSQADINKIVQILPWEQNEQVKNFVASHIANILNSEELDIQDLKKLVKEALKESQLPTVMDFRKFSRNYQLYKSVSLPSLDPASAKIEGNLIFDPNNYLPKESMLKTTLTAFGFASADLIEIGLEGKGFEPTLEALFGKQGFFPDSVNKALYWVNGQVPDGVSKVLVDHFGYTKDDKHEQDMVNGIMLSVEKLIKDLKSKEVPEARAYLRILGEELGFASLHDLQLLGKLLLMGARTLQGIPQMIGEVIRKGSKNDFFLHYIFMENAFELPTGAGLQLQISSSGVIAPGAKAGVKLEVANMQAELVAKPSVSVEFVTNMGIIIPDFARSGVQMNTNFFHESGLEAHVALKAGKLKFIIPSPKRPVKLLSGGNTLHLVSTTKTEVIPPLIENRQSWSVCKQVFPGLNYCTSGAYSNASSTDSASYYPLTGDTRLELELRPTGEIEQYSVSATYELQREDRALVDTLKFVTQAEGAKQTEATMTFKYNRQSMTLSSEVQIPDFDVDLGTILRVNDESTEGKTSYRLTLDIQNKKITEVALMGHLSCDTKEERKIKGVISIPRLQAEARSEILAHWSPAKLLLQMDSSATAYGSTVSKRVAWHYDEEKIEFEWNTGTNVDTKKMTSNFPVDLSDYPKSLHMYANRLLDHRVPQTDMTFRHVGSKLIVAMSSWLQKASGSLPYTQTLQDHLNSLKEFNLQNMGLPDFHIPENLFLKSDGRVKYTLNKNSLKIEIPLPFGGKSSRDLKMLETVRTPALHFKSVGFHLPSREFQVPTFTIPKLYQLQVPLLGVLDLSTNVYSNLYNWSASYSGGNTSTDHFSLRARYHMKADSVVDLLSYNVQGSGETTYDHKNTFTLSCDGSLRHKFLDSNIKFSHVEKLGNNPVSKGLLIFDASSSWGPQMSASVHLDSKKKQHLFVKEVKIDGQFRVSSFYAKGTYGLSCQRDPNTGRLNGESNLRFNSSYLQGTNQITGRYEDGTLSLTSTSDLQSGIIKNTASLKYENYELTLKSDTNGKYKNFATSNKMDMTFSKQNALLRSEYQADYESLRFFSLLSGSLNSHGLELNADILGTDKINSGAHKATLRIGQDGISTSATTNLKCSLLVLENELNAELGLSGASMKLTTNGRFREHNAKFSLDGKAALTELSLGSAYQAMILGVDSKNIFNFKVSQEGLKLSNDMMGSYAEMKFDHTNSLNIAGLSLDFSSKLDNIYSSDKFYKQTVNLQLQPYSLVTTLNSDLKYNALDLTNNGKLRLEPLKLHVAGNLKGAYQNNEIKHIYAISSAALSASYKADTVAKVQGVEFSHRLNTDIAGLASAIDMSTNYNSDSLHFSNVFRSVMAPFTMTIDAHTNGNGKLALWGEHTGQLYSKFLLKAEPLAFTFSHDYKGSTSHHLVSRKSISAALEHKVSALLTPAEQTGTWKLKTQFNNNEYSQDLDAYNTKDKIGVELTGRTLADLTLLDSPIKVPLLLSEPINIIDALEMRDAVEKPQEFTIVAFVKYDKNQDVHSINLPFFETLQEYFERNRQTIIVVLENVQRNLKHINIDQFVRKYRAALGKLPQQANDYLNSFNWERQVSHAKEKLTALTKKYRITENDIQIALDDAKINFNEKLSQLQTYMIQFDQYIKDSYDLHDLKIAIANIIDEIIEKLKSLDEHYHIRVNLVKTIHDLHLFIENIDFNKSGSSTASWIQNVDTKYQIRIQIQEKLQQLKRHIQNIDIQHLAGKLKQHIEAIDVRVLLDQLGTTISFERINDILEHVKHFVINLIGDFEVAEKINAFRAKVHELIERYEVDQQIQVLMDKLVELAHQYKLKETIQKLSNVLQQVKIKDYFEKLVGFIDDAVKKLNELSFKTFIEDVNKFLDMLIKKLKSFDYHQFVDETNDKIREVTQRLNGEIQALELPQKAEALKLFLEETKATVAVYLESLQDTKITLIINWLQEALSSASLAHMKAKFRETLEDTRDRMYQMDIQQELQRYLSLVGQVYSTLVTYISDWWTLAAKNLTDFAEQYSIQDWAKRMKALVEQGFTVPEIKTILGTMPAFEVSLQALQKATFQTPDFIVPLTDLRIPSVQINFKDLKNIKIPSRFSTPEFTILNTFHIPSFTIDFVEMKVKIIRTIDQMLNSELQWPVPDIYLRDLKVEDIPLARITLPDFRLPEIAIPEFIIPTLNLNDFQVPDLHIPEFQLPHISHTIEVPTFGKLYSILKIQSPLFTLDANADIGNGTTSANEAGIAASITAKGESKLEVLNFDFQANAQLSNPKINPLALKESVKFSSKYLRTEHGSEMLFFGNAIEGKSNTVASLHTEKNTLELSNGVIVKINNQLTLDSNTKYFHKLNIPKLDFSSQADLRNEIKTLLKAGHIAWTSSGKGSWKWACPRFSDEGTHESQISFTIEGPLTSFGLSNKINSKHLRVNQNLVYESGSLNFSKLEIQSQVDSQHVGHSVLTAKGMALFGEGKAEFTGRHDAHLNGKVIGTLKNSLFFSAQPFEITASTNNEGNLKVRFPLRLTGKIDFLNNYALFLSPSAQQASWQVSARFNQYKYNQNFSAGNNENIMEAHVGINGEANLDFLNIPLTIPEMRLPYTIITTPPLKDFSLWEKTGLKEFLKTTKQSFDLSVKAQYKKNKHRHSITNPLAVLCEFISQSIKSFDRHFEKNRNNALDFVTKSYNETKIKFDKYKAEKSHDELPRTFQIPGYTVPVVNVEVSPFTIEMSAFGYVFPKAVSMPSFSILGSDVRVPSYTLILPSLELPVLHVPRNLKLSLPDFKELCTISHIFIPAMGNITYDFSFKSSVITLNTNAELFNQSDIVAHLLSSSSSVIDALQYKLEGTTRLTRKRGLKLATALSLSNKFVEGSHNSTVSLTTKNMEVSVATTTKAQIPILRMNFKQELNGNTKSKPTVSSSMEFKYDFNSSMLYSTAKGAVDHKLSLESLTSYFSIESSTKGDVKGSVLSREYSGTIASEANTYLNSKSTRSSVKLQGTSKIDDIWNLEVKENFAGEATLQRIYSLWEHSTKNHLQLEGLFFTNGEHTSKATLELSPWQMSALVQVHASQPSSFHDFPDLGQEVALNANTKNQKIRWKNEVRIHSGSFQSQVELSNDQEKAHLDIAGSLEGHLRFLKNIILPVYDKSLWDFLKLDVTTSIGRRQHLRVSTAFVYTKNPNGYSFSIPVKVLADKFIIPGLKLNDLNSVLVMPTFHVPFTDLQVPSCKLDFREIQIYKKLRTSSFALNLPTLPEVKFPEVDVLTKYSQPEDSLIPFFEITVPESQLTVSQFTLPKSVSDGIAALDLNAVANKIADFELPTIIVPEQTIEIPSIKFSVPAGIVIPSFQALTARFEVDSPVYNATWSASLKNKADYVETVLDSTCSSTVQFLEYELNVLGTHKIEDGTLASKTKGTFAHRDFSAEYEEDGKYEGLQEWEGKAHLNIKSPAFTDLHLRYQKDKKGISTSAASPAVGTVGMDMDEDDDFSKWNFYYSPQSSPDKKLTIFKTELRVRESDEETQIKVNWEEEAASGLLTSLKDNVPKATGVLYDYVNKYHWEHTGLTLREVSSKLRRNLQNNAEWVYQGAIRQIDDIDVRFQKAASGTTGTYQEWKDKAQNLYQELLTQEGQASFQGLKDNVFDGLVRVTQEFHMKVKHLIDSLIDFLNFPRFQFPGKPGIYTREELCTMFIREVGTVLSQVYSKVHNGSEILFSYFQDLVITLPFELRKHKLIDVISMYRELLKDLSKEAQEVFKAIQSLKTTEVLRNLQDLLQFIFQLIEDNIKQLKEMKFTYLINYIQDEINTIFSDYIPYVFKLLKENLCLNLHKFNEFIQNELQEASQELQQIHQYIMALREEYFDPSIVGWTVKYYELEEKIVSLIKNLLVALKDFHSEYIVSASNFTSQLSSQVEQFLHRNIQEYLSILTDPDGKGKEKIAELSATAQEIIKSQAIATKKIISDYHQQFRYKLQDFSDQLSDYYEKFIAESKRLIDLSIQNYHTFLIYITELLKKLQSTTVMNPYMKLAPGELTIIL

Sequence of Fas (human) (P25445 26-335): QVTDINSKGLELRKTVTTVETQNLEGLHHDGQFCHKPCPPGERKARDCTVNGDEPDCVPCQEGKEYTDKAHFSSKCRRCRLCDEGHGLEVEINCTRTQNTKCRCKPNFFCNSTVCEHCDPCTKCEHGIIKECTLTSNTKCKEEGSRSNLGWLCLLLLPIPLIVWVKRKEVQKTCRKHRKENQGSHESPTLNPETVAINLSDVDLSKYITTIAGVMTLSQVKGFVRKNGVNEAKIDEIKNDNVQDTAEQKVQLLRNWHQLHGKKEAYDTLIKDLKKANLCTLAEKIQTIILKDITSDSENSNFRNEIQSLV

In turn, “soluble Fas ligand (from UniProt P48023 134-281)” returned a release of FAS from PBMCs of SLE patients with Fas (human) of 73%.

B1: orticumab (antibody, human IgG1, lambda, V domains shown)
VH: EVQLLESGGGLVQPGGSLRLSCAASGFTFSNAWMSWVRQAPGKGLEWVSSISVGGHRTYYADSVKGRSTISRDNSKNTLYLQMNSLRAEDTAVYYCARIRVGPSGGAFDYWGQGTLVTVSS
VL: QSVLTQPPSASGTPGQRVTISCSGSNTNIGKNYVSWYQQLPGTAPKLLIYANSNRPSGVPDRFSGSKSGTSASLAISGLRSEDEADYYCASWDASLNGWVFGGGTKLTVLG
For B1, the “IC50 for MCP-1 inhibition” value in the test with oxidized LDL (oxLDL) is ~10 nM.
